Measured values published in paper PMC10723402.
Residue numbers refer to the chain shown, from its start. Where two headings read alike, the source gives them in different places.

How the values were obtained:
[1] = biological target: T1, Gsx2 167-305 (Mus musculus, UniProt P31316 167-305); assay: ITC
[2] = biological target: Gsx2HD (Mus musculus, UniProt P31316 203-264); assay: ITC
[3] = biological target: T2, Gsx2HD S212E (Mus musculus, UniProt P31316 203-264, S212E); assay: EMSA
[4] = biological target: T3, Gsx2HD L216E (Mus musculus, UniProt P31316 203-264, L216E); assay: EMSA
T3 sequence (P31316 203-264 L216E): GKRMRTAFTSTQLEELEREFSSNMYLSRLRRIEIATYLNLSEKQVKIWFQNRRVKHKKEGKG

[5] = biological target: T4, Gsx2HD L231E (Mus musculus, UniProt P31316 203-264, L231E); assay: EMSA
T4 sequence (P31316 203-264 L231E): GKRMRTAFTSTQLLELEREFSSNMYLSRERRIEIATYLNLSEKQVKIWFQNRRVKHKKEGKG

[6] = biological target: T1, Gsx2 167-305; assay: EMSA
[7] = biological target: T1, Gsx2 167-305; assay: EMSA; remark: listed apart in the source
[8] = biological target: Gsx2HD I234E (Mus musculus, UniProt P31316 203-264, I234E); assay: ITC
Sequence of Gsx2HD I234E (P31316 203-264 I234E): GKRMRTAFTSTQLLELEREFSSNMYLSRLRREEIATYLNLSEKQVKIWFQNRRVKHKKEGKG

[9] = biological target: T2, Gsx2HD S212E; assay: EMSA; remark: listed apart in the source
[10] = biological target: T3, Gsx2HD L216E; assay: EMSA; remark: listed apart in the source
[11] = biological target: T4, Gsx2HD L231E; assay: EMSA; remark: listed apart in the source

T1 sequence (P31316 167-305): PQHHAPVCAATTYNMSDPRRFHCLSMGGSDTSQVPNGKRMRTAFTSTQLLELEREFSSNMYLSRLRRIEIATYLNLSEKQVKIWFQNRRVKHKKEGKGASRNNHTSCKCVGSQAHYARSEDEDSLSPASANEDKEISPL
T2 sequence (P31316 203-264 S212E): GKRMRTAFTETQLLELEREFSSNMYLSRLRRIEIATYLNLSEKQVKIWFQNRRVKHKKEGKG
Sequence of Gsx2HD (P31316 203-264): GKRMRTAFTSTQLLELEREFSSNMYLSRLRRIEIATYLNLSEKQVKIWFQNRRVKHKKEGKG

B1: TAATGG (common Q50) monomer site 15mer (dsDNA)
DNA 1: TGAGCTAATGGAAGC
DNA 2: AGCTTCCATTAGCTC
Kd [1]: 143 nM | Kd [2]: 36 nM

B2: 7bpS dimer probe (= AAATT spacer probe) (dsDNA)
DNA 1: TCCAACTAATTAAAATTTAATTCGTAGTGCGGGCGTGGCT
DNA 2: CGAATTAAATTTTAATTAGTTGGA
DNA 3: AGCCACGCCCGCACTA
binding result [3]: binds | binding result [4]: binds | binding result [5]: binds

B3: ATATT spacer dimer probe (dsDNA)
DNA 1: B2 DNA 1 with A14T
DNA 2: CGAATTAAATATTAATTAGTTGGA
DNA 3: AGCCACGCCCGCACTA
binding result [6]: binds

B4: GCGGG spacer dimer probe (dsDNA)
DNA 1: B2 DNA 1 with A13G, A14C, A15G, T16G, T17G
DNA 2: CGAATTACCCGCTAATTAGTTGGA
DNA 3: AGCCACGCCCGCACTA
binding result [7]: binds

B5: GGGCC spacer dimer probe (dsDNA)
DNA 1: B2 DNA 1 with A13G, A14G, A15G, T16C, T17C
DNA 2: CGAATTAGGCCCTAATTAGTTGGA
DNA 3: AGCCACGCCCGCACTA
binding result [7]: binds

B6: GCCGG spacer dimer probe (dsDNA)
DNA 1: B2 DNA 1 with A13G, A14C, A15C, T16G, T17G
DNA 2: CGAATTACCGGCTAATTAGTTGGA
DNA 3: AGCCACGCCCGCACTA
binding result [7]: binds

B7: AATTT spacer dimer probe (dsDNA)
DNA 1: B2 DNA 1 with A15T
DNA 2: CGAATTAAAATTTAATTAGTTGGA
DNA 3: AGCCACGCCCGCACTA
binding result [6]: binds

B8: TAATTA consensus monomer site 15mer (dsDNA)
DNA 1: TGAGCTAATTAAAGC
DNA 2: AGCTTTAATTAGCTC
Kd [8]: 20 nM

B9: 8bpS dimer probe (dsDNA)
DNA 1: TCCAACTAATTAAAGATTTAATTCGTAGTGCGGGCGTGGCT
DNA 2: CGAATTAAATCTTTAATTAGTTGGA
DNA 3: AGCCACGCCCGCACTA
binding result [9]: binds | binding result [10]: binds | binding result [11]: binds
